The values below come from ChEMBL document CHEMBL2074192, “Functional analysis and androgen-regulated expression of mouse organic anion transporting polypeptide 1 (Oatp1) in the kidney” (Biochim Biophys Acta, 2001).

Substrate in series [1]: [H][C@@]12CC=C3C[C@@H](OS(=O)(=O)O)CC[C@]3(C)[C@@]1([H])CC[C@]1(C)C(=O)CC[C@@]21[H]
As to the kind of experiment: (§1) TP_TRANSPORTER: uptake in Xenopus laevis oocytes. Format: functional, cell-based, Oocyte.

Substrate in series [2]: C[C@]12CC[C@@H]3c4ccc(O)cc4CC[C@H]3[C@@H]1CC[C@@H]2O[C@@H]1O[C@H](C(=O)O)[C@@H](O)[C@H](O)[C@H]1O
The series is described as §1. The format is functional, cell-based, Oocyte.

B1: Solute carrier organic anion transporter family member 1A1 (Mus musculus) (protein)
chain: MEETEKKVATQEGRFFSKMKVFLMSLTCAYLAKSLSGVYMNSMLTQIERQFGIPTSVVGFITGSFEIGNLLLIVFVSYFGRKLHRPIIIGVGCVVMGLGCFLMASPHFLMGRYKYETTISPTSNLSSNSFLCIENRTQTLKPTQDPTECVKEIKSLMWIYVLIGNTMRGIGETPIMPLGISYIEDFAKSENSPLYIGILEMGKIVGPIIGLLLGSFFARVYVDIGSVNTDDLTITPTDTRWVGAWWIGFLVCAGVNILTSIPFFFFPKTLPKKELQDNVDVTKYEKVEKHRERAKKENLGITKDFLPFMKSLCCNPIYMLFSLTSVLQINGFASTFTFLPKYLEQQYGKSTSEAVFLIGVYSLPPVCLGYLISGFIMKKFKITVKKAAYIAFGLSLSEYFIFLCNYLLTCDNFPVAGLTTSYKGVQHPLYGEKNVLADCNTRCSCLTDTWDPVCGDNGLAYMSACLAGCEKSVGTGTNMVFQNCSCIGSSGNSSAVLGLCKKGPECDNKLQYFLIKSVFSSFIFSLAAIPGYMVLLRCVKSEEKSIGVGLHAFFIRLLAGIPAPVYFGALIDRTCLHWGTLKCGQPGACRMYDINRFRHIYLGLPAAVRGSSFLPAVFILILMRKFHFPGDIHSPDTELAEMKLTEKESECTDVCRSPKVENDGELKTKL
For B1, the Km in series [1] and in series [2] was 8.2 µM each time.
